The values below come from the supplement of paper PMC11316812.

± gives the standard deviation of the averaged measurements.

One data set concerns MCF7. Description: percentage of EdU-negative (G0-arrested) nuclei per well, 72 h; higher = more G0 arrest. The note with it: reference: sequence is the full UniProt precursor, the tested protein was the secreted form or ectodomain.
The test system of a further data set is hTERT-HMEC. Described as above. The note with it: reference: sequence is the full UniProt precursor, the tested protein was the secreted form or ectodomain.
Where [1] appears, read: protein concentration 0.0308571 µM.
The mark [2] stands for this setting: protein concentration 0.308571 µM.
Where [3] appears, read: protein concentration 0.03125 µM.
Where [4] appears, read: protein concentration 0.3125 µM.
Where [5] appears, read: protein concentration 0.00775 µM.
The mark [6] stands for this setting: protein concentration 0.0775 µM.
Setting [7] is: protein concentration 0.0225 µM.
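Also: secreted proteins added to cultured cells, EdU pulse at the end, nuclei found by Hoechst imaging, EdU status from nuclear versus surrounding ring intensity ratio, PBS as neutral control.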

On to “MPLGLLWLGLALLGALHAQAQDSTSDLIPAPPLSKVPLQQNFQDNQFQGKWYVVGLAGNAILREDKDPQKMYATIYELKEDKSYNVTSVLFRKKKCDYWIRTFVPGCQPGEFTLGNIKSYPGLTSYLVRVVSTNYNQHAMVFFKKVSQNREYFKITLYGRTKELTSELKENFIRFSKSLGLPENHIVFPVPIDQCIDG”, for which the “percentage of EdU-negative” value amounted to 26.8 ± 1.9% with MCF7 (setting [1]), 28.2 ± 1.9% in the data set with MCF7 (setting [2]), 4.56 ± 0.62% with hTERT-HMEC (setting [1]) and 8.76 ± 0.27% with hTERT-HMEC (setting [2]).
On to “MPLLWLRGFLLASCWIIVRSSPTPGSEGHSAAPDCPSCALAALPKDVPNSQPEMVEAVKKHILNMLHLKKRPDVTQPVPKAALLNAIRKLHVGKVGENGYVEIEDDIGRRAEMNELMEQTSEIITFAESGTARKTLHFEISKEGSDLSVVERAEVWLFLKVPKANRTRTKVTIRLFQQQKHPQGSLDTGEEAEEVGLKGERSELLLSEKVVDARKSTWHVFPVSSSIQRLLDQGKSSLDVRIACEQCQESGASLVLLGKKKKKEEEGEGKKKGGGEGGAGADEEKEQSHRPFLMLQARQSEDHPHRRRRRGLECDGKVNICCKKQFFVSFKDIGWNDWIIAPSGYHANYCEGECPSHIAGTSGSSLSFHSTVINHYRMRGHSPFANLKSCCVPTKLRPMSMLYYDDGQNIIKKDIQNMIVEECGCS”, for which the “percentage of EdU-negative” value in the data set with MCF7 (setting [3]) turned out to be 26.6 ± 1.6%; in the data set with MCF7 (setting [4]), 27.8 ± 1.4%; with hTERT-HMEC (setting [3]), 5.64 ± 0.18%; in the data set on hTERT-HMEC (setting [4]), 5.29 ± 1.4%.
For “MPLRDETLREVWASDSGHEEESLSPEAPRRPKQRPAPAQRLRKKRTEAPESPCPTGSKPRKPGAGRTGRPREEPSPDPAQARAPQTVYARFLRDPEAKKRDPRETFLVARAPDAEDEEEEEEEDEEDEEEEAEEKKEKILLPPKKPLREKSSADLKERRAKAQGPRGDLGSPDPPPKPLRVRNKEAPAGEGTKMRKTKKKGSGEADKDPSGSPASARKSPAAMFLVGEGSPDKKALKKKGTPKGARKEEEEEEEAATVIKKSNQKGKAKGKGKKKAKEERAPSPPVEVDEPREFVLRPAPQGRTVRCRLTRDKKGMDRGMYPSYFLHLDTEKKVFLLAGRKRKRSKTANYLISIDPTNLSRGGENFIGKLRSNLLGNRFTVFDNGQNPQRGYSTNVASLRQELAAVIYETNVLGFRGPRRMTVIIPGMSAENERVPIRPRNASDGLLVRWQNKTLESLIELHNKPPVWNDDSGSYTLNFQGRVTQASVKNFQIVHADDPDYIVLQFGRVAEDAFTLDYRYPLCALQAFAIALSSFDGKLACE”, the “percentage of EdU-negative” value came out at 25.1 ± 0.28% with MCF7 (setting [5]), 25.5 ± 0.95% in the data set with MCF7 (setting [6]), 5.21 ± 0.36% in the data set with hTERT-HMEC (setting [5]) and 6.67 ± 0.59% with hTERT-HMEC (setting [6]).
On to “MPLSLGAEMWGPEAWLLLLLLLASFTGRCPAGELETSDVVTVVLGQDAKLPCFYRGDSGEQVGQVAWARVDAGEGAQELALLHSKYGLHVSPAYEGRVEQPPPPRNPLDGSVLLRNAVQADEGEYECRVSTFPAGSFQARLRLRVLVPPLPSLNPGPALEEGQGLTLAASCTAEGSPAPSVTWDTEVKGTTSSRSFKHSRSAAVTSEFHLVPSRSMNGQPLTCVVSHPGLLQDQRITHILHVSFLAEASVRGLEDQNLWHIGREGAMLKCLSEGQPPPSYNWTRLDGPLPSGVRVDGDTLGFPPLTTEHSGIYVCHVSNEFSSRDSQVTVDVLDPQEDSGKQVDLVSASVVVVGVIAALLFCLLVVVVVLMSRYHRRKAQQMTQKYEEELTLTRENSIRRLHSHHTDPRSQPEESVGLRAEGHPDSLKDNSSCSVMSEEPEGRSYSTLTTVREIETQTELLSPGSGRAEEEEDQDEGIKQAMNHFVQENGTLRAKPTGNGIYINGRGHLV [Q96NY8]”, for which the “percentage of EdU-negative” value in the data set on MCF7 (setting [7]) worked out at 27.6 ± 2%; in the data set with MCF7 (protein concentration 0.225 µM), 27.8 ± 0.29%; with hTERT-HMEC (setting [7]) it was 4.77 ± 0.36%; in the data set with hTERT-HMEC (protein concentration 0.225 µM), 5.65 ± 0.22%.
For “MPMASPQTLVLYLLVLAVTEAWGQEAVIPGCHLHPFNVTVRSDRQGTCQGSHVAQACVGHCESSAFPSRYSVLVASGYRHNITSVSQCCTISGLKKVKVQLQCVGSRREELEIFTARACQCDMCRLSRY [Q96T91]”, the “percentage of EdU-negative” value in the data set on MCF7 (setting [7]) was determined as 24.4 ± 0.81%; with MCF7 (protein concentration 0.225 µM), 22 ± 2.1%; with hTERT-HMEC (setting [7]), 6.3 ± 1.5%; with hTERT-HMEC (protein concentration 0.225 µM), 4.45 ± 1.1%.
As for “MPMFIVNTNVPRASVPDGFLSELTQQLAQATGKPPQYIAVHVVPDQLMAFGGSSEPCALCSLHSIGKIGGAQNRSYSKLLCGLLAERLRISPDRVYINYYDMNAANVGWNNSTFA”, the “percentage of EdU-negative” value in the data set with MCF7 (setting [7]) was 24.4 ± 1.2%; in the data set on MCF7 (protein concentration 0.225 µM) it was 26.3 ± 2%; in the data set on hTERT-HMEC (setting [7]), 4.84 ± 1.4%; in the data set with hTERT-HMEC (protein concentration 0.225 µM), 6.38 ± 1.7%.
On the same counts, the results for “MPMGSLQPLATLYLLGMLVASCLGRLSWYDPDFQARLTRSNSKCQGQLEVYLKDGWHMVCSQSWGRSSKQWEDPSQASKVCQRLNCGVPLSLGPFLVTYTPQSSIICYGQLGSFSNCSHSRNDMCHSLGLTCLEPQKTTPPTTRPPPTTTPEPTAPPRLQLVAQSGGQHCAGVVEFYSGSLGGTISYEAQDKTQDLENFLCNNLQCGSFLKHLPETEAGRAQDPGEPREHQPLPIQWKIQNSSCTSLEHCFRKIKPQKSGRVLALLCSGFQPKVQSRLVGGSSICEGTVEVRQGAQWAALCDSSSARSSLRWEEVCREQQCGSVNSYRVLDAGDPTSRGLFCPHQKLSQCHELWERNSYCKKVFVTCQDPNPAGLAAGTVASIILALVLLVVLLVVCGPLAYKKLVKKFRQKKQRQWIGPTGMNQNMSFHRNHTATVRSHAENPTASHVDNEYSQPPRNSHLSAYPALEGALHRSSMQPDNSSDSDYDLHGAQRL” are 24.9 ± 1.4%, 26 ± 3.2%, 5.29 ± 0.99% and 5.13 ± 0.33%.
